The results in this text go back to patent US20210139548A1 (published 2021).

T1: human neuropeptide Y2 receptor (human, UniProt P49146 1-381)
T1 construct: whole, on cells; also called hNPY2 receptor; hNPY2-R
T1 sequence (looked up): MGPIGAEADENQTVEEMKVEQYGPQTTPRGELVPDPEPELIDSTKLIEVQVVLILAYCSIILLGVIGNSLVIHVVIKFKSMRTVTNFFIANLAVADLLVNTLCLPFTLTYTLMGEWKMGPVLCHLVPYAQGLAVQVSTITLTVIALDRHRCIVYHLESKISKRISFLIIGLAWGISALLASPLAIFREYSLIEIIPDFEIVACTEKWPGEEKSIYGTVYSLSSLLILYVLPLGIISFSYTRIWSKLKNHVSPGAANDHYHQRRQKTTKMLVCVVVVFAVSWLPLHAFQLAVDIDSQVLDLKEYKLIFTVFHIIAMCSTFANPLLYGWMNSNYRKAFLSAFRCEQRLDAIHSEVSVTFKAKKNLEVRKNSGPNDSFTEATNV

B1: Compound 63 (peptide)
peptide: Isovaleryl-APEK([AEEA-AEEA-γGlu-C18 diacid])PEEDASPEELQRYYVSLRAYYNWLTRQRY-NH2
SMILES: CC(C)CC(=O)N[C@@H](C)C(=O)N1CCC[C@H]1C(=O)N[C@@H](CCC(=O)O)C(=O)N[C@@H](CCCCNC(=O)COCCOCCNC(=O)COCCOCCNC(=O)CC[C@H](NC(=O)CCCCCCCCCCCCCCCCC(=O)O)C(=O)O)C(=O)N1CCC[C@H]1C(=O)N[C@@H](CCC(=O)O)C(=O)N[C@@H](CCC(=O)O)C(=O)N[C@@H](CC(=O)O)C(=O)N[C@@H](C)C(=O)N[C@@H](CO)C(=O)N1CCC[C@H]1C(=O)N[C@@H](CCC(=O)O)C(=O)N[C@@H](CCC(=O)O)C(=O)N[C@@H](CC(C)C)C(=O)N[C@@H](CCC(N)=O)C(=O)N[C@@H](CCCNC(=N)N)C(=O)N[C@@H](Cc1ccc(O)cc1)C(=O)N[C@@H](Cc1ccc(O)cc1)C(=O)N[C@H](C(=O)N[C@@H](CO)C(=O)N[C@@H](CC(C)C)C(=O)N[C@@H](CCCNC(=N)N)C(=O)N[C@@H](C)C(=O)N[C@@H](Cc1ccc(O)cc1)C(=O)N[C@@H](Cc1ccc(O)cc1)C(=O)N[C@@H](CC(N)=O)C(=O)N[C@@H](Cc1c[nH]c2ccccc12)C(=O)N[C@@H](CC(C)C)C(=O)N[C@H](C(=O)N[C@@H](CCCNC(=N)N)C(=O)N[C@@H](CCC(N)=O)C(=O)N[C@@H](CCCNC(=N)N)C(=O)N[C@@H](Cc1ccc(O)cc1)C(N)=O)[C@@H](C)O)C(C)C
B2: Compound 70 (peptide)
peptide: Isovaleryl-APEK([AEEA-AEEA-γGlu-C18 diacid])PEEAASPEELQRYEVSLRHYYNWLTRQRY-NH2
SMILES: CC(C)CC(=O)N[C@@H](C)C(=O)N1CCC[C@H]1C(=O)N[C@@H](CCC(=O)O)C(=O)N[C@@H](CCCCNC(=O)COCCOCCNC(=O)COCCOCCNC(=O)CC[C@H](NC(=O)CCCCCCCCCCCCCCCCC(=O)O)C(=O)O)C(=O)N1CCC[C@H]1C(=O)N[C@@H](CCC(=O)O)C(=O)N[C@@H](CCC(=O)O)C(=O)N[C@@H](C)C(=O)N[C@@H](C)C(=O)N[C@@H](CO)C(=O)N1CCC[C@H]1C(=O)N[C@@H](CCC(=O)O)C(=O)N[C@@H](CCC(=O)O)C(=O)N[C@@H](CC(C)C)C(=O)N[C@@H](CCC(N)=O)C(=O)N[C@@H](CCCNC(=N)N)C(=O)N[C@@H](Cc1ccc(O)cc1)C(=O)N[C@@H](CCC(=O)O)C(=O)N[C@H](C(=O)N[C@@H](CO)C(=O)N[C@@H](CC(C)C)C(=O)N[C@@H](CCCNC(=N)N)C(=O)N[C@@H](Cc1c[nH]cn1)C(=O)N[C@@H](Cc1ccc(O)cc1)C(=O)N[C@@H](Cc1ccc(O)cc1)C(=O)N[C@@H](CC(N)=O)C(=O)N[C@@H](Cc1c[nH]c2ccccc12)C(=O)N[C@@H](CC(C)C)C(=O)N[C@H](C(=O)N[C@@H](CCCNC(=N)N)C(=O)N[C@@H](CCC(N)=O)C(=O)N[C@@H](CCCNC(=N)N)C(=O)N[C@@H](Cc1ccc(O)cc1)C(N)=O)[C@@H](C)O)C(C)C
B3: Compound 69 (peptide)
peptide: Isovaleryl-APEK([AEEA-AEEA-γGlu-C18 diacid])PEEDSSAEELQRYYVSLRHYYNWLTRQRY-NH2
SMILES: CC(C)CC(=O)N[C@@H](C)C(=O)N1CCC[C@H]1C(=O)N[C@@H](CCC(=O)O)C(=O)N[C@@H](CCCCNC(=O)COCCOCCNC(=O)COCCOCCNC(=O)CC[C@H](NC(=O)CCCCCCCCCCCCCCCCC(=O)O)C(=O)O)C(=O)N1CCC[C@H]1C(=O)N[C@@H](CCC(=O)O)C(=O)N[C@@H](CCC(=O)O)C(=O)N[C@@H](CC(=O)O)C(=O)N[C@@H](CO)C(=O)N[C@@H](CO)C(=O)N[C@@H](C)C(=O)N[C@@H](CCC(=O)O)C(=O)N[C@@H](CCC(=O)O)C(=O)N[C@@H](CC(C)C)C(=O)N[C@@H](CCC(N)=O)C(=O)N[C@@H](CCCNC(=N)N)C(=O)N[C@@H](Cc1ccc(O)cc1)C(=O)N[C@@H](Cc1ccc(O)cc1)C(=O)N[C@H](C(=O)N[C@@H](CO)C(=O)N[C@@H](CC(C)C)C(=O)N[C@@H](CCCNC(=N)N)C(=O)N[C@@H](Cc1c[nH]cn1)C(=O)N[C@@H](Cc1ccc(O)cc1)C(=O)N[C@@H](Cc1ccc(O)cc1)C(=O)N[C@@H](CC(N)=O)C(=O)N[C@@H](Cc1c[nH]c2ccccc12)C(=O)N[C@@H](CC(C)C)C(=O)N[C@H](C(=O)N[C@@H](CCCNC(=N)N)C(=O)N[C@@H](CCC(N)=O)C(=O)N[C@@H](CCCNC(=N)N)C(=O)N[C@@H](Cc1ccc(O)cc1)C(N)=O)[C@@H](C)O)C(C)C
B4: Compound 65 (peptide)
peptide: Isovaleryl-APEK([AEEA-AEEA-γGlu-C18 diacid])PEEDASPEELQRYYVEIRHYYNWLTRQRY-NH2
SMILES: CC[C@H](C)[C@H](NC(=O)[C@H](CCC(=O)O)NC(=O)[C@@H](NC(=O)[C@H](Cc1ccc(O)cc1)NC(=O)[C@H](Cc1ccc(O)cc1)NC(=O)[C@H](CCCNC(=N)N)NC(=O)[C@H](CCC(N)=O)NC(=O)[C@H](CC(C)C)NC(=O)[C@H](CCC(=O)O)NC(=O)[C@H](CCC(=O)O)NC(=O)[C@@H]1CCCN1C(=O)[C@H](CO)NC(=O)[C@H](C)NC(=O)[C@H](CC(=O)O)NC(=O)[C@H](CCC(=O)O)NC(=O)[C@H](CCC(=O)O)NC(=O)[C@@H]1CCCN1C(=O)[C@H](CCCCNC(=O)COCCOCCNC(=O)COCCOCCNC(=O)CC[C@H](NC(=O)CCCCCCCCCCCCCCCCC(=O)O)C(=O)O)NC(=O)[C@H](CCC(=O)O)NC(=O)[C@@H]1CCCN1C(=O)[C@H](C)NC(=O)CC(C)C)C(C)C)C(=O)N[C@@H](CCCNC(=N)N)C(=O)N[C@@H](Cc1c[nH]cn1)C(=O)N[C@@H](Cc1ccc(O)cc1)C(=O)N[C@@H](Cc1ccc(O)cc1)C(=O)N[C@@H](CC(N)=O)C(=O)N[C@@H](Cc1c[nH]c2ccccc12)C(=O)N[C@@H](CC(C)C)C(=O)N[C@H](C(=O)N[C@@H](CCCNC(=N)N)C(=O)N[C@@H](CCC(N)=O)C(=O)N[C@@H](CCCNC(=N)N)C(=O)N[C@@H](Cc1ccc(O)cc1)C(N)=O)[C@@H](C)O
B5: Compound 68 (peptide)
peptide: Isovaleryl-APEK([AEEA-AEEA-γGlu-C18 diacid])PEEEASPEELQAYYVSLRHYYNWLTRQRY-NH2
SMILES: CC(C)CC(=O)N[C@@H](C)C(=O)N1CCC[C@H]1C(=O)N[C@@H](CCC(=O)O)C(=O)N[C@@H](CCCCNC(=O)COCCOCCNC(=O)COCCOCCNC(=O)CC[C@H](NC(=O)CCCCCCCCCCCCCCCCC(=O)O)C(=O)O)C(=O)N1CCC[C@H]1C(=O)N[C@@H](CCC(=O)O)C(=O)N[C@@H](CCC(=O)O)C(=O)N[C@@H](CCC(=O)O)C(=O)N[C@@H](C)C(=O)N[C@@H](CO)C(=O)N1CCC[C@H]1C(=O)N[C@@H](CCC(=O)O)C(=O)N[C@@H](CCC(=O)O)C(=O)N[C@@H](CC(C)C)C(=O)N[C@@H](CCC(N)=O)C(=O)N[C@@H](C)C(=O)N[C@@H](Cc1ccc(O)cc1)C(=O)N[C@@H](Cc1ccc(O)cc1)C(=O)N[C@H](C(=O)N[C@@H](CO)C(=O)N[C@@H](CC(C)C)C(=O)N[C@@H](CCCNC(=N)N)C(=O)N[C@@H](Cc1c[nH]cn1)C(=O)N[C@@H](Cc1ccc(O)cc1)C(=O)N[C@@H](Cc1ccc(O)cc1)C(=O)N[C@@H](CC(N)=O)C(=O)N[C@@H](Cc1c[nH]c2ccccc12)C(=O)N[C@@H](CC(C)C)C(=O)N[C@H](C(=O)N[C@@H](CCCNC(=N)N)C(=O)N[C@@H](CCC(N)=O)C(=O)N[C@@H](CCCNC(=N)N)C(=O)N[C@@H](Cc1ccc(O)cc1)C(N)=O)[C@@H](C)O)C(C)C
B6: Compound 67 (peptide)
peptide: Isovaleryl-APEK([AEEA-AEEA-γGlu-C18 diacid])PEEDSAPEELQRYYVSLRHYYNWLTRQRY-NH2
SMILES: CC(C)CC(=O)N[C@@H](C)C(=O)N1CCC[C@H]1C(=O)N[C@@H](CCC(=O)O)C(=O)N[C@@H](CCCCNC(=O)COCCOCCNC(=O)COCCOCCNC(=O)CC[C@H](NC(=O)CCCCCCCCCCCCCCCCC(=O)O)C(=O)O)C(=O)N1CCC[C@H]1C(=O)N[C@@H](CCC(=O)O)C(=O)N[C@@H](CCC(=O)O)C(=O)N[C@@H](CC(=O)O)C(=O)N[C@@H](CO)C(=O)N[C@@H](C)C(=O)N1CCC[C@H]1C(=O)N[C@@H](CCC(=O)O)C(=O)N[C@@H](CCC(=O)O)C(=O)N[C@@H](CC(C)C)C(=O)N[C@@H](CCC(N)=O)C(=O)N[C@@H](CCCNC(=N)N)C(=O)N[C@@H](Cc1ccc(O)cc1)C(=O)N[C@@H](Cc1ccc(O)cc1)C(=O)N[C@H](C(=O)N[C@@H](CO)C(=O)N[C@@H](CC(C)C)C(=O)N[C@@H](CCCNC(=N)N)C(=O)N[C@@H](Cc1c[nH]cn1)C(=O)N[C@@H](Cc1ccc(O)cc1)C(=O)N[C@@H](Cc1ccc(O)cc1)C(=O)N[C@@H](CC(N)=O)C(=O)N[C@@H](Cc1c[nH]c2ccccc12)C(=O)N[C@@H](CC(C)C)C(=O)N[C@H](C(=O)N[C@@H](CCCNC(=N)N)C(=O)N[C@@H](CCC(N)=O)C(=O)N[C@@H](CCCNC(=N)N)C(=O)N[C@@H](Cc1ccc(O)cc1)C(N)=O)[C@@H](C)O)C(C)C

*1 amine or outer side, *2 acyl side, *3 side chain or, on linkers, in order; H or OH if unused. Side-chain parts run from the residue outwards. The star is where a group is joined. C18 diacid = O=C(O)CCCCCCCCCCCCCCCCC(=O)*; γGlu = O=C(O)[C@H](CCC(=O)[*:2])N[*:1]; Isovaleryl = CC(C)CC(=O)*; AEEA = NCCOCCOCC(=O)O

This experiment deals with T1, human neuropeptide Y2 receptor. In words: radioligand competition (125I-PYY(1-36)), hNPY2R membranes. The gist of the method: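 Commercial human Y2 receptor membranes (0.5 μg protein/well) were incubated with peptide for 2 h at room temperature in 50 mM HEPES, 5 mM MgCl₂, 1 mM CaCl₂, pH 7.4, with 0.2% ovalbumin. Bound radioligand was separated on PEI-soaked GF/C filters and counted by scintillation, and IC₅₀ came from nonlinear sigmoidal regression.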
A general note: Loss of bound radioactivity is the signal in a displacement assay; it reports binding, not function.
Usually Ki stands for the equilibrium dissociation constant of an inhibitor or competing ligand from its target. Turning to B1, the Ki came to 3.13 nM.
With B2 the figure was 4.86 nM.
Consider B3, for which the Ki was determined as 5.74 nM. This Ki and that of the molecule before are within 1.5-fold of each other.
With B4 the figure was 1.02 nM.
With B5 the figure was 8.47 nM.
With B6 the figure was 4.37 nM.
